Measurements taken from patent US20100297662A1.

Experiments:
[1] = target: amylospheroid 42 (Homo sapiens (Human)) (UniProt P05067); assay: SPR, ratio of Kd values (40Aβ against 42ASPD)
[2] = target: amylospheroid 42 (Homo sapiens (Human)) (UniProt P05067); assay: SPR, ratio of Kd values (42 fibril against 42ASPD)
[3] = target: Aβ fibril (42 fibril) prepared from 42Aβ (Homo sapiens (Human)) (UniProt P05067); assay: SPR (BIAcore), antigen on CM5 chip, antibody in solution
[4] = target: amylospheroid 42 (Homo sapiens (Human)) (UniProt P05067); assay: as above
[5] = target: monomeric amyloid β40-protein (Aβ1-40); assay: as above
[6] = target: Aβ fibril prepared from amyloid β40 (Homo sapiens (Human)) (UniProt P05067); assay: SPR (BIAcore 3000), antigen on CM5 chip, antibody in solution
[7] = target: amylospheroid 42 (Homo sapiens (Human)) (UniProt P05067); assay: as above
[8] = target: monomeric amyloid β40-protein (Aβ1-40); assay: as above
[9] = target: monomeric amyloid β42-protein (Aβ1-42); assay: as above
[10] = target: ASPD (amylospheroid; Aβ species not stated); assay: competitive ELISA: antibody pre-reacted with ASPD in solution, then ASPD solid-phase plate
[11] = target: commercially available amyloid precursor protein sAPPα (Sigma) (UniProt P05067); assay: competitive ELISA: antibody pre-reacted with sAPPα in solution, then ASPD solid-phase plate

Sequence of monomeric amyloid β40-protein (Aβ1-40) (peptide, as listed by the source): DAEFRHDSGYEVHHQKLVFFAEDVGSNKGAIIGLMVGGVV
Sequence of monomeric amyloid β42-protein (Aβ1-42) (peptide, as listed by the source): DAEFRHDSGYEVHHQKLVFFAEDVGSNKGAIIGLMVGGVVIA

fold higher affinity with ASPD than with amyloid β-monomer [1] [times]	fold higher affinity with ASPD than with amyloid fibril [2] [times]	Kd [3] [nM]	Kd [4] [nM]	Kd [5] [nM]	Kd [6] [nM]	Kd [7] [nM]	Kd [8] [nM]	Kd [9] [nM]	IC50 [10] [nM]	IC50 [11] [nM]	Substance
34	2	0.231	0.115	3.93							anti-Aβ antibody 3D6 (US 20030165496 A1), produced as a mouse IgG2b/κ molecule
					1.33	18.3	37.3	17.2	3.7	16.1	commercially available anti-amyloid β antibody 6E10 (Senetek)
